Source: the supplement of paper PMC12042874
± gives the uncertainty stated by the source.

Assay: amyloid nucleation score (Sup35N fusion, yeast selection) (log enrichment); library NNK2; higher = more nucleation; inactive = no reads after selection
In short: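 Peptides of 20 random codons fused to Sup35N were expressed in psi-negative yeast, induced 24 hours with 100 μM copper sulfate, then grown 7 days at 30°C on medium lacking adenine and uracil. Input and output plasmid inserts were Illumina-sequenced. Nucleation score is the DiMSum log enrichment of output over input reads, centred on the mode score of non-aggregating sequences, excluding sequences with under 100 input reads. Random libraries had three technical output replicates.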

Substance	amyloid nucleation score
FGNFLLSITII	2.4 ± 0.062
FGNRRSCHDIRSWIDRYLVR	1.69 ± 0.52
FGSVRASGISDFGRMDHGTG	-0.079 ± 0.76
FGYHGSYMWYAFQGHYNKGY	0.743 ± 0.42
FHAKRTINMNGATVQYGLYA	-0.354 ± 0.76
FHCVVVYNNRQMCSVTKDSS	7.962 ± 0.031
FHGGNFATDWFLWFINWEVA	-0.259 ± 0.65
FHTNCYKIMMSGRHFHVSFD	8.932 ± 0.046
FIADYYGGKTHGNLMSALTC	1.06 ± 0.53
FIAFFSWFFGWWRKMQAQAL	inactive
FIAYRFWFWKGVSASKEHGQ	0.433 ± 0.62
FICALTMYICSLY	7.389 ± 0.027
FICSAYFECRRDSYEFFVGC	inactive
FICVCIVKNKGMGRPCN	2.72 ± 0.1
FIDFGVVVSWVL	0.985 ± 0.3
FIDLYLRFWVCTSFQCAHSI	inactive
FIGCKEHNILNSMKRVD	-0.594 ± 1.1
FIIRYLYYKS	inactive
FIITNWQVSFRL	4.383 ± 0.042
FIKVFCSLRVDNQVRYRKRL	2.75 ± 0.1
FILQELCWPVLSSIHFGNVA	-1.15 ± 0.36
FINSD	inactive
FINSVVKLLLGNDMSCYSCH	5.65 ± 0.081
FIPEERDIWGYAPGNCIFFR	-1.77 ± 0.54

Substance	amyloid nucleation score
FIRIVSFMRWHATTSALAIA	0.106 ± 0.36
FISTGRHTICDIVAHNADLF	-0.305 ± 0.8
FITEDLVRAFANYVND	inactive
FIVSDSRCVGNVTNGQSVLS	-0.97 ± 0.63
FIWSLRGDDRSCLRLSSLQT	-1 ± 0.63
FKAERSFLLSRYILKREGSQ	-0.972 ± 0.34
FKFVIYRFIFHPSEVPKGD	0.057 ± 1.1
FKFYGFFD	inactive
FKFYYVYYDITFYEC	-0.454 ± 0.28
FKINESSYVLWDGSSYCRAG	-0.711 ± 1.1
FKLICTRSWLRLG	3.91 ± 0.056
FKNLAFTFNLQCL	6.472 ± 0.051
FKNRGLLICFEEEHLCAKRR	-1.05 ± 0.78
FKNTIV	-0.343 ± 0.56
FKSVLWCKFLTDIG	6.04 ± 0.064
FKSVSRSVALLRYPCLPKFS	-0.47 ± 0.74
FKVRIVGPLTAGMVE	-1.01 ± 0.34
FLAGVSVFWSYCDSTNLSNQ	-0.111 ± 0.29
FLCVTISLDNSVACLPLRYS	0.532 ± 0.66
FLCVYDFVVRNIKGIVLRLH	0.294 ± 0.8
FLFAKYGSIIDTSVVDRLAR	0.979 ± 0.5
FLFRKYWLTNRWLFMFKEFA	0.196 ± 0.65
FLFYTFRLRVFFLNCNSEDW	-1.97 ± 0.54
FLGCYGLNCVSWKGMMSTPL	4.31 ± 0.072

Substance	amyloid nucleation score
FLGKDWYVVTSVVKYTNAFF	0.104 ± 0.45
FLIKAKGFYSSLLATGGIEK	inactive
FLISSMHWYCHKPCWGFLGQ	-0.569 ± 0.79
FLLPIWGSNHNTLNFR	-0.547 ± 1.1
FLLRIWTACVLFACKYRGIR	inactive
FLLRVSSSTKTRRSSGVDL	3.69 ± 0.095
FLLTKSRCLEVFA	4.68 ± 0.065
FLNHE	inactive
FLNHYWLYFQP	5.353 ± 0.044
FLSVARPTF	inactive
FLTGDFSAHMNLLIWIFEMS	5.669 ± 0.05
FLTLPVSPSTQFISDRGSAL	2.64 ± 0.13
FLVENCC	-0.39 ± 0.64
FLVFVLLGDR	6.23 ± 0.07
FLVFYLVCGSGLYMNNGQFF	-0.908 ± 0.41
FLVLIQRKAQGITLQREGTW	5.84 ± 0.069
FLVMGLRYS	5.407 ± 0.052
FLVYTWSFRNSCRPDLKVVE	0.126 ± 0.8
FMAWTDSLIYKHAICAATL	-0.031 ± 0.39
FMPSVFMYSLVVFRYVVYMS	-1.07 ± 0.78
FMRQMLLVLMPWCQRRWACL	-0.382 ± 0.32
FMTFK	3.14 ± 0.13
FMVQSVFTKLGPSQAFRVHP	-0.14 ± 1
FNATIVDRDLRSRGQNRSLQ	0.362 ± 0.65

Substance	amyloid nucleation score
FNDLMYVNYLLCMVH	4.04 ± 0.095
FNDSPSYWFSHYIAARSSVE	-0.37 ± 0.36
FNFIIAQE	-1.1 ± 1.1
FNGCFSCTMG	8.109 ± 0.055
FNHLRSARILPGFFSFSRFK	-1.35 ± 0.54
FNINSPTALSYFMVLEVPLV	2.42 ± 0.12
FNKDMSNKFNSDKGELSSFM	inactive
FNLAPLMVIMPGIMGWGLLG	1.67 ± 0.16
FNMFWVLGFTSRGTRGYSTS	3.9 ± 0.051
FNNVILSRV	-1.5 ± 0.61
FNSRL	-0.208 ± 1
FNWDNFSKLVAKNNLVISKL	inactive
FNYYLCTPIKVGTCPCVDFR	7.17 ± 0.075
FPARFHACLDYKWFGTGRPS	2.41 ± 0.12
FPIVFTTKCDIFLSYSLLPS	1.7 ± 0.13
FPLLNCKRACLKAAVEAHYR	0.076 ± 0.61
FPLRLLWSGGALCATPPIRV	0.655 ± 0.47
FPVSVTTISPNIYGQPNTWC	-1.41 ± 0.45
FQCDVSCSVYKSWEMFQGIT	0.164 ± 0.8
FQCSYVWVKLWHILN	-0.887 ± 1.1
FQDTLDLRRLRYWCYPKLGL	-0.69 ± 0.55
FQGVVSRYSYYS	1.81 ± 0.22
FQIMKAYDTLPFLVYPVTGD	-0.117 ± 0.79
FQSDIKVIIMSTCTISGGRY	1.33 ± 0.25

Substance	amyloid nucleation score
FRALFSNVVRVDMAMAAGFL	-1.79 ± 0.78
FREGSSIGFVLPTENVLMT	0.256 ± 1
FRFCHCLEFQVY	0.126 ± 0.5
FRKCI	1.25 ± 0.38
FRRFCQDILYICMRKDMVQG	0.833 ± 0.8
FRRRQNRAHKYGALNYSMGS	inactive
FRTQCHRAMDRASCRVLVRP	inactive
FRVGLLVGISMVDFTLGVNA	0.416 ± 0.8
FRVSSIWDRLVATLGNMCRS	inactive
FRYERTGRAMSTASVVTTTV	1.04 ± 0.68
FRYLYVLYGFYMVVTWYLRV	-0.088 ± 0.63
FSIISGCFRNVVDLLRMLNL	-1.2 ± 1.1
FSLFWWMSHITREWISCMCM	-0.895 ± 1.1
FSMMFIL	3.57 ± 0.075
FSMRFRKVFICKMDIQQAYV	0.13 ± 1.1
FSNLPGH	1.98 ± 0.15
FSPIYRHGHKCML	-0.672 ± 0.54
FSPLCYSYV	-1.22 ± 1
FSQFMKLNSRFIRRYMWCVL	-0.891 ± 0.55
FSRTTAHMTLDMYFTGRDGY	5.79 ± 0.058
FSSFVNREKMFIHFSNVVYF	1.44 ± 0.1
FSSIDPPNTRSAVSFRMTSP	0.065 ± 0.65
FSVRGRWAHLWMK	0.443 ± 0.42
FSVTMF	-0.197 ± 0.33

Substance	amyloid nucleation score
FSVYRETERLGMSFRVRLWM	5.25 ± 0.073
FSWFDWKGYVLSWIRSYSSE	inactive
FSWVIYYE	-1.27 ± 1.1
FSYMYPRGLLVINMSGVQVN	1.22 ± 0.17
FTCAYA	inactive
FTFIHFLCVSVHLLNSWS	0.42 ± 0.56
FTGIRRGLWLS	0.405 ± 0.56
FTLDNMSLQTRTLMRYE	-0.863 ± 0.49
FTNIGSEYDMTGLNEGSSMP	-0.411 ± 0.29
FTSFCMMKGPGLY	-1.44 ± 1.1
FTTMESDGMVFGL	3.75 ± 0.061
FTVGSMSGDFWLLCWYLR	3.09 ± 0.15
FTVRQTKAAGECSSKQWGTL	3.18 ± 0.098
FTWCRWVFWRNCYNDMEEDA	-1.01 ± 1.1
FTWVYMHNIIFLLGSRLYIK	inactive
FVDYVTCSQYVNIFRDTLGL	-0.677 ± 0.38
FVECILASLWTRFEKIRMAC	-0.108 ± 1.1
FVEIIAKWILTI	0.033 ± 0.6
FVGTLMDPVSLMKLRW	0.787 ± 0.31
FVHFMRVAASRNTNFYNLLW	inactive
FVHKSCSAALTTLGTVAD	4.333 ± 0.042
FVKGS	inactive
FVPAVEFVHHFAVWVWRE	0.072 ± 1.1
FVPFYYKADKLTILSS	inactive

Substance	amyloid nucleation score
FVTFWDYWSSRGDPMMSYRV	0.13 ± 0.49
FWALCVASVICYFVRMLSLA	0.169 ± 0.3
FWCYELDNPDGYLIFLHQPV	inactive
FWGIMNSILTETLL	-1.53 ± 1.1
FWLSSESANYTCFKRYVG	0.25 ± 0.47
FWRVLLSTLHTIFNMRNNMP	-1.28 ± 0.54
FWSVEMMRHTSSFIFAEWNK	-0.033 ± 0.2
FYCIARERLRMVNFT	-0.845 ± 0.62
FYCLCTTDGICLEDLL	-0.097 ± 1.1
FYESKMGVMINFNWFYDTTS	6.88 ± 0.069
FYFLLG	0.587 ± 0.32
FYGQMRSKVLCLFH	-1.02 ± 0.76
FYGRCLTFTAHPSFSRFAR	0.333 ± 0.61
FYGSEVIMSTDVQGNGEYGA	-0.791 ± 0.62
FYINVRLYARVACRCMRVPC	5.4 ± 0.076
FYKTLCKLGWAPWS	-0.744 ± 0.32
FYLIIDPIPMDCSGIIVNCY	inactive
FYLLVFDLHDSCL	inactive
FYLNRKRVYLSDGCRAFR	0.252 ± 0.51
FYLSAFRHVMRASCLDDLSK	inactive
FYLWATTYQCRFFIRYAKFS	2.97 ± 0.084
FYMLYYQIAVSCHLCFDILV	inactive
FYNIRPETVAKAMKGLGWST	-0.136 ± 0.37
FYQGLATILSSSLVPIHRHQ	inactive
